The target of assay [1] is Inactive αIIbβ3 (recombinant human ectodomain αIIbβ3 on DETA beads before activation) (human) (UniProt P08514). The assay is described as follows: flow cytometry, 50 nM FITC-PAC-1 on inactive αIIbβ3 beads, n ≥ 3. On the technique in general: In flow cytometry, cells or beads pass a laser one at a time.
Assay [2] addresses Activated αIIbβ3 (recombinant human ectodomain αIIbβ3 on DETA beads after incubation in activation buffer with CaCl2, MnCl2 and MgCl2) (human) (UniProt P08514). Briefly: flow cytometry, 50 nM FITC-PAC-1 on activated αIIbβ3 beads, n ≥ 3.
Assay [3] concerns the target T1, recombinant human ectodomain αIIbβ3 immobilized on a surface (activation state not stated at the place of the … (human, UniProt P08514 32-993; P05106 27-718).
T1 construct: also called αIIbβ3 coupled beads; αIIbβ3 coated beads
Briefly: sandwich ELISA, fibrinogen dose response on plate-immobilized αIIbβ3, HRP labelled detection antibody. The procedure:
Fibrinogen ELISA Assay. To ensure similar immobilization levels of recombinant human ectodomain αIIbβ3 between the ELISA plate and integrin coupled magnetic beads, the wells of a 96-well micro plate (Nunc MaxiSorp) were incubated with the same αIIbβ3 concentration per surface area as during the preparation of the magnetic beads, 6.6×10⁴ μg·mL⁻¹·cm⁻². Each well was coated with αIIbβ3 or control proteins (BSA and β3−/− platelet lysate) by incubation of 6 μg/μL protein in binding buffer (TRIS buffered saline with 0.05% TWEEN-20 and 1 mM each of MgCl₂, MnCl₂ and CaCl₂) at 4° C. overnight. Incubation of 3% skim milk (ED Millipore) and 2% TWEEN-20 for 1 hour at 37° C. was used for blocking. The concentration of αIIbβ3 per surface area of bead used when coating SAM coated beads is 6.6×10⁴ μg·mL⁻¹·cm⁻², therefore the wells of 96 well plates used were coated with the same density EDC/NHS quenching achieved by increase pH to 8.6. Bead concentration for synthesis: 6×10⁹ beads·mL⁻¹; Integrin-bead reaction concentration=250 μg·mL⁻¹; Integrin Used=6.6×10⁴ μg·mL⁻¹·cm⁻²; Well Surface Area (50 μL)=0.93 cm²; Concentration/wee for ELISA=6×10⁴ μg·mL⁻¹ (6 μL/well in 50 μL total volume); Stock [αIIbβ3]=5×10⁵ μg·mL⁻¹.
To evaluate the analytical potential of these αIIbβ3 coupled molecular probes, a flow cytometry sandwich assay was developed. […]
In general terms: In an ELISA, binding on a coated surface is turned into a signal by an enzyme label.

Assay [4] deals with T1, recombinant human ectodomain αIIbβ3 …. Briefly: flow cytometry sandwich assay, fibrinogen dose response on αIIbβ3 coupled beads, FITC labelled detection antibody, no blocking step. The source says: To evaluate the analytical potential of these αIIbβ3 coupled molecular probes, a flow cytometry sandwich assay was developed. […] The same primary antibody was used for both assays, however, the detection antibody for ELISA was HRP labelled and for flow cytometry was FITC labelled. The fibrinogen does response curves are depicted in the inserts of each of FIGS. 5A and 5B. […] The flow cytometry based assay produced a significant increase in performance compared to ELISA, even though a blocking step and a signal amplification-based detection strategy were employed in ELISA. It was postulated that the significant increase in performance observed is due to the SAM and the immobilization strategy which promotes the high-affinity ligand binding conformation of the integrin.

This passage reports Mean Fluorescence Intensity (MFI) and Kd results from patent US20230194519A1 (CCOA THERAPEUTICS, published 2023).

T1 sequence (P08514 other isoform, or with tags, fused parts or gaps limits assumed, chain 1 of 2): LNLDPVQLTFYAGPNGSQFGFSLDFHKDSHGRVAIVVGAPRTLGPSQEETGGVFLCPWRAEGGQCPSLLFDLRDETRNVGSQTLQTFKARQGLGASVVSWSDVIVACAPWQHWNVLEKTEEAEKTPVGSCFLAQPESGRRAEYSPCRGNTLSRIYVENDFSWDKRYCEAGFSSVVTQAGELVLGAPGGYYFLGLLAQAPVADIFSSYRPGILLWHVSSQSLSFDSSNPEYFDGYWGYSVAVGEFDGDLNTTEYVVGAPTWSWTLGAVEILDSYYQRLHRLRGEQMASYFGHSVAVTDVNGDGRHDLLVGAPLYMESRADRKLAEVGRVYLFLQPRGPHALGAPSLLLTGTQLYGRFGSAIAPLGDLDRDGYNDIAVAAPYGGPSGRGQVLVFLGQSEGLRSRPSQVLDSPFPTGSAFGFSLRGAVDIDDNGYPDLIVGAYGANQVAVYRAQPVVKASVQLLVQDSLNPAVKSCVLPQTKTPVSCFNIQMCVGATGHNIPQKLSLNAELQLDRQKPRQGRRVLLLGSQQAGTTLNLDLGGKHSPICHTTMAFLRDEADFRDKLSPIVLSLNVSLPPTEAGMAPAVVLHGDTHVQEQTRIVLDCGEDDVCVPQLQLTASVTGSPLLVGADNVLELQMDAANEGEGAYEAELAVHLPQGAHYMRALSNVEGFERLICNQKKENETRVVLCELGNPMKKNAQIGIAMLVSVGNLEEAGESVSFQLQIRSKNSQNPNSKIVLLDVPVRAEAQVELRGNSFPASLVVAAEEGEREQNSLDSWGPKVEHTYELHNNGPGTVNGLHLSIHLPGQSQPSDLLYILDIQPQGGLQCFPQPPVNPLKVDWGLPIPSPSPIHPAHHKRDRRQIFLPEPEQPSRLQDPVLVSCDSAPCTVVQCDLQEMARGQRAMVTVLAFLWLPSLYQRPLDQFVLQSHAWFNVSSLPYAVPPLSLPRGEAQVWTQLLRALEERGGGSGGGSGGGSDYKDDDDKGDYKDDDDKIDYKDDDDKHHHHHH
T1 sequence (P05106 other isoform, or with tags, fused parts or gaps limits assumed, chain 2 of 2): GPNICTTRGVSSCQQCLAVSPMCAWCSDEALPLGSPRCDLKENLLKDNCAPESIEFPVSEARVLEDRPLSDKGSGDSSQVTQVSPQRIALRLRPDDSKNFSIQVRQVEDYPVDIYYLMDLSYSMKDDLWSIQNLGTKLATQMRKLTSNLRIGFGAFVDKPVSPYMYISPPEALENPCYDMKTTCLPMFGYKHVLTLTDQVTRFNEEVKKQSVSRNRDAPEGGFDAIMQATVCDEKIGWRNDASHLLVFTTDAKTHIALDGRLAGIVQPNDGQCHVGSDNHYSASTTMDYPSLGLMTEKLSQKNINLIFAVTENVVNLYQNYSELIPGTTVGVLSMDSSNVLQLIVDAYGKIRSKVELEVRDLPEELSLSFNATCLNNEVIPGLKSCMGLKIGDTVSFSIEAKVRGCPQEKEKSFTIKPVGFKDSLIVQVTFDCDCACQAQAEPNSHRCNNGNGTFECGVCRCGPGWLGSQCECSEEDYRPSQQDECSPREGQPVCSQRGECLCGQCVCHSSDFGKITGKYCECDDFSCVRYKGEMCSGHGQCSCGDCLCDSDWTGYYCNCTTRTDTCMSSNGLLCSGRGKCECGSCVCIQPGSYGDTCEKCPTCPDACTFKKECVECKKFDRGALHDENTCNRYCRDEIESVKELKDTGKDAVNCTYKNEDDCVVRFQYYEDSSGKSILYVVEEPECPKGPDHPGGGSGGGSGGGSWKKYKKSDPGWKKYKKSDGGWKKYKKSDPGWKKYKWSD
Sequence of Inactive αIIbβ3 (recombinant human ectodomain αIIbβ3 on DETA beads before activation) (human) (P08514 other isoform, or with tags, fused parts or gaps limits assumed, chain 1 of 2): as the sequence (P08514 other isoform, or with tags, fused parts or gaps limits assumed, chain 1 of 2) above
Sequence of Inactive αIIbβ3 (recombinant human ectodomain αIIbβ3 on DETA beads before activation) (human) (chain, as listed by the source limits assumed, chain 2 of 2): as the sequence (P05106 other isoform, or with tags, fused parts or gaps limits assumed, chain 2 of 2) above
Sequence of Activated αIIbβ3 (recombinant human ectodomain αIIbβ3 on DETA beads after incubation in activation buffer with CaCl2, MnCl2 and MgCl2) (human) (P08514 other isoform, or with tags, fused parts or gaps limits assumed, chain 1 of 2): as the sequence (P08514 other isoform, or with tags, fused parts or gaps limits assumed, chain 1 of 2) above
Sequence of Activated αIIbβ3 (recombinant human ectodomain αIIbβ3 on DETA beads after incubation in activation buffer with CaCl2, MnCl2 and MgCl2) (human) (chain, as listed by the source limits assumed, chain 2 of 2): as the sequence (P05106 other isoform, or with tags, fused parts or gaps limits assumed, chain 2 of 2) above

With PAC-1 (antibody), the Mean Fluorescence Intensity (MFI) in assay [1] was 212 MFI; in assay [2] it was 942 MFI.

B1: fibrinogen (ligand)
chain 1: ADSGEGDFLAEGGGVRGPRVVERHQSACKDSDWPFCSDEDWNYKCPSGCRMKGLIDEVNQDFTNRINKLKNSLFEYQKNNKDSHSLTTNIMEILRGDFSSANNRDNTYNRVSEDLRSRIEVLKRKVIEKVQHIQLLQKNVRAQLVDMKRLEVDIDIKIRSCRGSCSRALAREVDLKDYEDQQKQLEQVIAKDLLPSRDRQHLPLIKMKPVPDLVPGNFKSQLQKVPPEWKALTDMPQMRMELERPGGNEITRGGSTSYGTGSETESPRNPSSAGSWNSGSSGPGSTGNRNPGSSGTGGTATWKPGSSGPGSTGSWNSGSSGTGSTGNQNPGSPRPGSTGTWNPGSSERGSAGHWTSESSVSGSTGQWHSESGSFRPDSPGSGNARPNNPDWGTFEEVSGNVSPGTRREYHTEKLVTSKGDKELRTGKEKVTSGSTTTTRRSCSKTVTKTVIGPDGHKEVTKEVVTSEDGSDCPEAMDLGTLSGIGTLDGFRHRHPDEAAFFDTASTGKTFPGFFSPMLGEFVSETESRGSESGIFTNTKESSSHHPGIAEFPSRGKSSSYSKQFTSSTSYNRGDSTFESKSYKMADEAGSEADHEGTHSTKRGHAKSRPV
chain 2: QGVNDNEEGFFSARGHRPLDKKREEAPSLRPAPPPISGGGYRARPAKAAATQKKVERKAPDAGGCLHADPDLGVLCPTGCQLQEALLQQERPIRNSVDELNNNVEAVSQTSSSSFQYMYLLKDLWQKRQKQVKDNENVVNEYSSELEKHQLYIDETVNSNIPTNLRVLRSILENLRSKIQKLESDVSAQMEYCRTPCTVSCNIPVVSGKECEEIIRKGGETSEMYLIQPDSSVKPYRVYCDMNTENGGWTVIQNRQDGSVDFGRKWDPYKQGFGNVATNTDGKNYCGLPGEYWLGNDKISQLTRMGPTELLIEMEDWKGDKVKAHYGGFTVQNEANKYQISVNKYRGTAGNALMDGASQLMGENRTMTIHNGMFFSTYDRDNDGWLTSDPRKQCSKEDGGGWWYNRCHAANPNGRYYWGGQYTWDMAKHGTDDGVVWMNWKGSWYSMRKMSMKIRPFFPQQ
chain 3: YVATRDNCCILDERFGSYCPTTCGIADFLSTYQTKVDKDLQSLEDILHQVENKTSEVKQLIKAIQLTYNPDESSKPNMIDAATLKSRKMLEEIMKYEASILTHDSSIRYLQEIYNSNNQKIVNLKEKVAQLEAQCQEPCKDTVQIHDITGKDCQDIANKGAKQSGLYFIKPLKANQQFLVYCEIDGSGNGWTVFQKRLDGSVDFKKNWIQYKEGFGHLSPTGTTEFWLGNEKIHLISTQSAIPYALRVELEDWNGRTSTADYAMFKVGPEADKYRLTYAYFAGGDAGDAFDGFDFGDDPSDKFFTSHNGMQFSTWDNDNDKFEGNCAEQDGSGWWMNKCHAGHLNGVYYQGGTYSKASTPNGYDNGIIWATWKTRWYSMKKTTMKIIPFNRLTIGEGQQHHLGGAKQAGDV
modifications: Alexa488 label in the Table 2 assay
notes: Native ligand of αIIbβ3; also called Alexa488 labelled fibrinogen; Alexa 488 - Fibrinogen
Consider B1, for which the Kd was determined as 2200 nM in assay [3] and 210 nM in assay [4].

The Kd is the equilibrium constant for the complex coming apart.
